Source: patent US20210277145A1 (INSERM INSTITUT NATIONAL DE LA SANTE ET DE LA RECHERCHE …, published 2021)

What was measured:
[1] = target: T1, human albumin (human, UniProt P02768 25-609); test: ELISA, albumin coated at 10 microgram/ml, anti-His tag detection
T1 construct: Coated on microtiter wells at 10 microgram/ml
Description: (§1) Example 1: Binding of KB-AT-002/003_ABP to human and murine albumin in an immunosorbent assay. Binding to albumin may be favorable to increase the size of sdAbs, which are smaller sized than conventional immunoglobulins (15 kDa versus 150 kDa, for a monovalent sdAb and IgG, respectively). A construct was established encoding a bi-paratopic sdAb (KB-AT-002/003) fused to an albumin binding peptide (ABP, with the amino acid sequence […]) resulting in the sdAb designated KB-AT-002/003_ABP (SEQ ID NO: 18). Purified KB-AT-002/003_ABP was tested for binding to both human and murine albumin. Human and murine albumin were immobilized (10 microgram/ml) in 10 mM NaHCO₃, 50 mM Na2CO3 (pH 9.5) in a volume of 50 microliter in microtiter plates (Greiner Bio-One, Les Ulis, France) for 16 h at 4° C. As a negative control, no albumin was immobilized. […]
(§2) Wells were then washed three times with 200 microliter/well using TBS-T. Bound of KB-AT-002/003_ABP was probed with peroxidase-labeled monoclonal anti-His tag antibodies (Abcam, diluted 1/10000) for 2 hours at 37° C. with 50 microliter/well. Wells were then washed three times with 100 microliter/well using TBS-T. Residual peroxidase activity was detected by measuring peroxidase-mediated […] of 3,3′,5,5′-tetramethylbenzidine. […]

[2] = target: T2, murine albumin (murine, UniProt P07724 25-608); test: as above
Description: as §1, §2

[3] = target: T3, biotinylated human albumin (human, UniProt P02768 25-609, biotinylated (sites not given)); test: biolayer interferometry (Octet-QK), bt-albumin on streptavidin sensors, sdAb at 125 or 250 microgram/ml
T3 construct: Captured on streptavidin biosensors; also called human bt-albumin; bt-albumin
Experimental: (§3) Example 2: Binding of KB-AT-002/003_ABP to biotinylated human albumin in a biolayer-interferometry analysis assay. We tested the binding of KB-AT-002/003_ABP to biotinylated human albumin using Octet-QK equipment (FIG. 2). To this end, biotinylated albumin (bt-albumin) was diluted in phosphate-buffered saline with 0.1% Tween-20 (PBS-T) to a concentration of 200 microgram/ml for absorption to streptavidin-high binding capacity sensors (Fortébio, Menlo Park, Calif., USA). Sensors were rehydrated in 0.2 ml PBS-T for 15 min. Sensors were then incubated with 0.1 ml bt-albumin solution for 600 sec. Sensors were subsequently allowed to reach stable baseline levels via incubation with PBS-T for 300 sec. bt-Albumin coated sensors were then transferred to wells containing KB-AT-002/003_ABP (125 or 250 microgram/ml in PBS-T) and incubated for 300 sec in order to visualize association of KB-AT-002/003_ABP to immobilized bt-albumin. Following this association phase, sensors were transferred to wells containing PBS-T, and incubated for 900 sec, allowing dissociation of the KB-AT-002/003_ABP/bt-albumin complex.
(§4) Example 3: Binding of KB-VWF-013bv_ABP to biotinylated human or murine albumin in a biolayer-interferometry analysis assay. We tested the binding of KB-VWF-013bv_ABP (SEQ ID NO: 6) to biotinylated human or murine albumin using Octet-QK equipment (FIG. 3). To this end, biotinylated albumin (bt-albumin) was diluted in phosphate-buffered saline with 0.1% Tween-20 (PBS-T) to a concentration of 200 microgram/ml for absorption to streptavidin-high binding capacity sensors (Fortébio, Menlo Park, Calif., USA). Sensors were rehydrated in 0.2 ml PBS-T for 15 min. Sensors were then incubated with 0.1 ml bt-albumin solution for 600 sec. Sensors were subsequently allowed to reach stable baseline levels via incubation with PBS-T for 300 sec. bt-Albumin coated sensors were then transferred to wells containing KB-VWF-013bv_ABP (125 or 250 microgram/ml in PBS-T) and incubated for 900 sec in order to visualize association of KB-VWF-013bv_ABP to immobilized bt-albumin.

[4] = target: T4, biotinylated murine albumin (murine, UniProt P07724 25-608, biotinylated (sites not given)); test: as above
T4 construct: Captured on streptavidin biosensors; also called murine bt-albumin; bt-albumin
Experimental: as §3, §4

[5] = target: T5, human antithrombin (human, UniProt P01008 33-464); test: biolayer interferometry (Octet-QK), human antithrombin coupled to amine-reactive sensors, sdAb in solution (100 microgram/ml by paragraph 127)
T5 construct: also called AT
Experimental: Example 4: Binding of murine albumin to a complex of antithrombin and KB-AT-002/003_ABP. We tested the binding of albumin to KB-AT-002/003_ABP while the sdAb was bound to antithrombin via biolayer-interferometry analysis using Octet-QK equipment (FIG. 4). To this end, human antithrombin was diluted in 0.1 M Mes (pH 5.0) to a concentration of 50 microgram/ml for coupling to EDC/NHS-activated amine-reactive biosensors (Fortébio, Menlo Park, Calif., USA). Sensors were rehydrated in 0.2 ml 0.1 M MES, pH 5.0 for 300 sec. Sensors were then activated via incubation with 0.1 ml 0.2 M EDC/0.095 M NHS mixture for 300 sec and subsequently incubated with 0.1 ml antithrombin-solution for 600 sec. Unoccupied amine-reactive sites were quenched by incubating with 1M ethanolamine for 180 sec, and sensors were allowed to reach stable baseline levels via incubation with phosphate-buffered saline supplemented with 0.1% Tween-20 (PBS-T) for 300 sec. Antithrombin-coated sensors were then transferred to wells containing KB-AT-002/003_ABP (100 microgram/ml in PBS-T) and incubated for 600 sec in order to visualize association of KB-AT-002/003_ABP to immobilized antithrombin. […] As is showing in the lower panel of FIG. 4, KB-AT-002/003_ABP bound readily to immobilized antithrombin.

[6] = target: T2, murine albumin; test: immunosorbent assay: murine albumin coated at 10 microgram/ml, bound sdAb probed with peroxidase-labeled anti-His tag antibody, corrected for non-coated wells
Description: as §1, §2

T5 sequence (P01008 33-464 limits assumed): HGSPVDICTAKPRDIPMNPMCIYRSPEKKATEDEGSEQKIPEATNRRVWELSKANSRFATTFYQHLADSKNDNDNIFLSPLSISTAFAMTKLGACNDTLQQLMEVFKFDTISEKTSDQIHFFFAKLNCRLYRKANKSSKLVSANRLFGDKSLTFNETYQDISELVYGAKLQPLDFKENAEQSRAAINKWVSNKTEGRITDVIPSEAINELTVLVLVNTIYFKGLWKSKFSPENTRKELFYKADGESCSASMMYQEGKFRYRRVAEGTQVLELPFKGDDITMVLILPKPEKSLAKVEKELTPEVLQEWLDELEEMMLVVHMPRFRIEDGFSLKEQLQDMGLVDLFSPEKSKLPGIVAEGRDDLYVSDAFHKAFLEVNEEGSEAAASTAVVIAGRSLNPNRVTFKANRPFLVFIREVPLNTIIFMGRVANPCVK

Row | Binder | binding result [1] | binding result [2] | Kd [3] | Kd [4] | binding result [5] | binding result [6]
1 | KB-AT-002/003 (VHH, A tag is not described, but a His tag is likely, since the ELISA detects with anti-His antibodies) QVQLQESGGGLVQAGGSLRLSCAASGRTFNNNGMGWFRQAPGKEREFVAAISWSGGSTYYADSVKGRYIMSRDNAKNTVYLQMNSLKPEDTAVYYCAARTRYNSGLFSRNYDYWGQGTQVTVSSGGGSGGGSGGGSGGGSQVQLQESGGGLVQPGGSLRLSCAASALTFSSRAWAWYRQAPGKQRELVASITGGGTTNYADSVKGRFTISRDNAKNTVYLQMNSLKPEDTAVHYCNGYRYTYAWGQGTQVTVSS | no binding (tested: 0-10 microgram/ml) | no binding (tested: 0-10 microgram/ml) |  |  |  | 
2 | KB-VWF-013bv_ABP (VHH, A tag is not described; also called KB-VWF-013_ABP) QVQLQSGGGLVQAGDSLRLSCAASGRTFIRYAMAWFRQAPGKEREFVAAIPQSGGRSYYADSVKGRFTISRDNAKNTVYLQMNSLKPEDTAVYSCAATSTYYGRSAYSSHSGGYDYWGQGTQVTVSSGGGSGGGSGGGSGGGSQVQLVQSGGGLVQAGDSLRLSCAASGRTFIRYAMAWFRQAPGKEREFVAAIPQSGGRSYYADSVKGRFTISRDNAKNTVYLQMNSLKPEDTAVYSCAATSTYYGRSAYSSHSGGYDYWGQGTQVTVSSGRGGGSLTPRGVRLGGGSQGLIGDIALPRWGALWGDSV |  |  | 99 nM | 83 nM |  | 
3 | KB-AT-002/003_ABP (VHH, It was detected with anti-His tag antibodies, so the protein tested carried a His tag; also called KB-AT-002/003_AlbBP) QVQLQESGGGLVQAGGSLRLSCAASGRTFNNNGMGWFRQAPGKEREFVAAISWSGGSTYYADSVKGRYIMSRDNAKNTVYLQMNSLKPEDTAVYYCAARTRYNSGLFSRNYDYWGQGTQVTVSSGGGSGGGSGGGSGGGSQVQLQESGGGLVQPGGSLRLSCAASALTFSSRAWAWYRQAPGKQRELVASITGGGTTNYADSVKGRFTISRDNAKNTVYLQMNSLKPEDTAVHYCNGYRYTYAWGQGTQVTVSSGRGGGSGGGSGGGSGGGSQGLIGDIALPRWGALWGDSV |  |  | 420 nM |  | binds | binds
